This data set concerns the molecule itself. Put plainly: cryo-EM structure.

B1: full length human TRPML1 with the V432A/A433G mutations (natural protein, UniProt Q9GZU1 1-580, looked up)
chain: MTAPAGPRGSETERLLTPNPGYGTQAGPSPAPPTPPEEEDLRRRLKYFFMSPCDKFRAKGRKPCKLMLQVVKILVVTVQLILFGLSNQLAVTFREENTIAFRHLFLLGYSDGADDTFAAYTREQLYQAIFHAVDQYLALPDVSLGRYAYVRGGGDPWTNGSGLALCQRYYHRGHVDPANDTFDIDPMVVTDCIQVDPPERPPPPPSDDLTLLESSSSYKNLTLKFHKLVNVTIHFRLKTINLQSLINNEIPDCYTFSVLITFDNKAHSGRIPISLETQAHIQECKHPSVFQHGDNSFRLLFDVVVILTCSLSFLLCARSLLRGFLLQNEFVGFMWRQRGRVISLWERLEFVNGWYILLVTSDVLTISGTIMKIGIEAKNLASYDVCSILLGTSTLLVWVGVIRYLTFFHNYNILIATLRVALPSVMRFCCCAGVIYLGYCFCGWIVLGPYHVKFRSLSMVSECLFSLINGDDMFVTFAAMQAQQGRSSLVWLFSQLYLYSFISLFIYMVLSLFIALITGAYDTIKHPGGAGAEESELQAYIAQCQDSPTSGKFRRGSGSACSLLCCCGRDPSEEHSLLVN
For B1, the binding result is listed as “binds”.

The values are drawn from PMC12174366 (Nature Communications, 2025).
